Source: the supplement of paper PMC9876800

Tested on: peptide library, one residue held at a place counted from the S/T acceptor
Test: relative phosphorylation of the sub-library (ratio to the mean residue at this position); Pediculus humanus corporis; higher = residue favoured
Procedure, shortened: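 Purified recombinant kinases (human or orthologue constructs) were incubated in 384-well plates with biotinylated degenerate peptide sub-libraries, each fixing one residue at one position around a central Ser/Thr. Peptides were at 50 μM, with 50 μM ATP spiked with γ-32P-ATP, for 90 min under kinase-specific conditions. Spots on streptavidin membranes were phosphorimaged and quantified by densitometry. Relative sub-library phosphorylation is a ratio to the mean residue at that position.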

PINK1, construct: aa126-end, sequence (E0W1I1 126-575, looked up): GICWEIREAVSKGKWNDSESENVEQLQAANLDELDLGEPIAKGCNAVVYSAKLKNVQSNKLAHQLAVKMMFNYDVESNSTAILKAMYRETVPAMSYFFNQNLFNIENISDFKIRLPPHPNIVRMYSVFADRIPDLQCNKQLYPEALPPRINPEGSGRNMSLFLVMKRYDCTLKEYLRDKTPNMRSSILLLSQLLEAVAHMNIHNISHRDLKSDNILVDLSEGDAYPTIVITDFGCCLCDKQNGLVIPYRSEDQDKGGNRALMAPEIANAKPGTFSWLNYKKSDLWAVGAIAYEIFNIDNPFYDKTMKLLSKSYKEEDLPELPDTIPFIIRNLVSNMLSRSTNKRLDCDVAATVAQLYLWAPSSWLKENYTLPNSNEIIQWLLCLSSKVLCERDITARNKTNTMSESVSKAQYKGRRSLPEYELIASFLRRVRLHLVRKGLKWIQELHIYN

PINK1, construct: aa126-end (from UniProt E0W1I1)
relative phosphorylation (A fixed, at +1): 0.566 | relative phosphorylation (A fixed, at +2): 1.09 | relative phosphorylation (A fixed, at +3): 0.757 | relative phosphorylation (A fixed, at +4): 0.761 | relative phosphorylation (A fixed, at -1): 1.01 | relative phosphorylation (A fixed, at -2): 0.871 | relative phosphorylation (A fixed, at -3): 0.867 | relative phosphorylation (A fixed, at -4): 0.921 | relative phosphorylation (A fixed, at -5): 1.04 | relative phosphorylation (D fixed, at +1): 0.454 | relative phosphorylation (D fixed, at +2): 0.704 | relative phosphorylation (D fixed, at +3): 0.585 | relative phosphorylation (D fixed, at +4): 0.547 | relative phosphorylation (D fixed, at -1): 0.982 | relative phosphorylation (D fixed, at -2): 0.416 | relative phosphorylation (D fixed, at -3): 1.11 | relative phosphorylation (D fixed, at -4): 1.49 | relative phosphorylation (D fixed, at -5): 1.67 | relative phosphorylation (E fixed, at +1): 0.292 | relative phosphorylation (E fixed, at +2): 0.655 | relative phosphorylation (E fixed, at +3): 0.509 | relative phosphorylation (E fixed, at +4): 0.54 | relative phosphorylation (E fixed, at -1): 1.22 | relative phosphorylation (E fixed, at -2): 0.781 | relative phosphorylation (E fixed, at -3): 0.81 | relative phosphorylation (E fixed, at -4): 1.81 | relative phosphorylation (E fixed, at -5): 1.48 | relative phosphorylation (F fixed, at +1): 0.496 | relative phosphorylation (F fixed, at +2): 1.06 | relative phosphorylation (F fixed, at +3): 1.11 | relative phosphorylation (F fixed, at +4): 0.954 | relative phosphorylation (F fixed, at -1): 0.612 | relative phosphorylation (F fixed, at -2): 1.25 | relative phosphorylation (F fixed, at -3): 1.43 | relative phosphorylation (F fixed, at -4): 1.01 | relative phosphorylation (F fixed, at -5): 1.21 | relative phosphorylation (G fixed, at +1): 1.94 | relative phosphorylation (G fixed, at +2): 0.875 | relative phosphorylation (G fixed, at +3): 0.873 | relative phosphorylation (G fixed, at +4): 1.02 | relative phosphorylation (G fixed, at -1): 0.812 | relative phosphorylation (G fixed, at -2): 0.416 | relative phosphorylation (G fixed, at -3): 0.579 | relative phosphorylation (G fixed, at -4): 0.946 | relative phosphorylation (G fixed, at -5): 0.806 | relative phosphorylation (H fixed, at +1): 0.954 | relative phosphorylation (H fixed, at +2): 1.11 | relative phosphorylation (H fixed, at +3): 1.15 | relative phosphorylation (H fixed, at +4): 1.04 | relative phosphorylation (H fixed, at -1): 0.945 | relative phosphorylation (H fixed, at -2): 0.84 | relative phosphorylation (H fixed, at -3): 0.964 | relative phosphorylation (H fixed, at -4): 1.25 | relative phosphorylation (H fixed, at -5): 1.09 | relative phosphorylation (I fixed, at +1): 0.55 | relative phosphorylation (I fixed, at +2): 0.712 | relative phosphorylation (I fixed, at +3): 0.657 | relative phosphorylation (I fixed, at +4): 0.789 | relative phosphorylation (I fixed, at -1): 0.604 | relative phosphorylation (I fixed, at -2): 1.55 | relative phosphorylation (I fixed, at -3): 0.774 | relative phosphorylation (I fixed, at -4): 0.696 | relative phosphorylation (I fixed, at -5): 0.863 | relative phosphorylation (K fixed, at +1): 1.59 | relative phosphorylation (K fixed, at +2): 1 | relative phosphorylation (K fixed, at +3): 1.41 | relative phosphorylation (K fixed, at +4): 1.4 | relative phosphorylation (K fixed, at -1): 0.952 | relative phosphorylation (K fixed, at -2): 0.828 | relative phosphorylation (K fixed, at -3): 0.387 | relative phosphorylation (K fixed, at -4): 0.596 | relative phosphorylation (K fixed, at -5): 0.754 | relative phosphorylation (L fixed, at +1): 0.517 | relative phosphorylation (L fixed, at +2): 0.76 | relative phosphorylation (L fixed, at +3): 0.676 | relative phosphorylation (L fixed, at +4): 0.802 | relative phosphorylation (L fixed, at -1): 1.14 | relative phosphorylation (L fixed, at -2): 0.907 | relative phosphorylation (L fixed, at -3): 2.14 | relative phosphorylation (L fixed, at -4): 0.739 | relative phosphorylation (L fixed, at -5): 0.889 | relative phosphorylation (M fixed, at +1): 0.626 | relative phosphorylation (M fixed, at +2): 0.982 | relative phosphorylation (M fixed, at +3): 0.832 | relative phosphorylation (M fixed, at +4): 0.902
